In patent US20040002586A1:

Target: recombinant human interleukin-22 (IL-22), expressed in E. coli from pEThTIF, refolded, not glycosylated (human) (UniProt Q9GZX6)
Experiment: X-ray crystal structure, surface buried between monomer A and monomer B

interface area: 2250 Å^2
Substance: recombinant human interleukin-22 (IL-22), expressed in E. coli from pEThTIF, refolded, not glycosylated (from UniProt Q9GZX6 29-179) (ligand)
